Here are results for four molecules from PMC11452378 (Scientific Reports, 2024).

Experiment [1] addresses extracellular fragment of FcγRIIIa (158V). Nature of the experiment: BLI; biotinylated FcγR immobilized on Streptavidin (SA) biosensors (Octet Red384); antibodies in solution as serial dilutions; PBS pH 7.4 0.1% BSA 0.1% Tween-20; at least triplicate.
For experiment [2], the target named is extracellular fragment of FcγRIIa (131R). Described as above.
Experiment [3] concerns the target extracellular fragment of FcγRIIIa (158F) (UniProt P08637). The description is as above.
Experiment [4] has as its target extracellular fragment of FcγRIIb (UniProt P31994). Described as above.
The target in experiment [5] is extracellular fragment of FcγRIIa (131H) (UniProt P12318). The experiment is described as above.
Sequence of extracellular fragment of FcγRIIa (131H) (P12318 34-217): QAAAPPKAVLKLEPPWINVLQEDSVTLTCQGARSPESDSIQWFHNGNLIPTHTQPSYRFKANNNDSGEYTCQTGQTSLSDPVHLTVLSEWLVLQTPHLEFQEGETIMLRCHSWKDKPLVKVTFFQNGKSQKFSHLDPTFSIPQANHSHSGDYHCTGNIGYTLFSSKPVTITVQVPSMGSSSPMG
The target in experiment [6] is extracellular fragment of FcγRIa (UniProt P12314). The experiment is described as above.
Sequence of extracellular fragment of FcγRIa (P12314 16-292): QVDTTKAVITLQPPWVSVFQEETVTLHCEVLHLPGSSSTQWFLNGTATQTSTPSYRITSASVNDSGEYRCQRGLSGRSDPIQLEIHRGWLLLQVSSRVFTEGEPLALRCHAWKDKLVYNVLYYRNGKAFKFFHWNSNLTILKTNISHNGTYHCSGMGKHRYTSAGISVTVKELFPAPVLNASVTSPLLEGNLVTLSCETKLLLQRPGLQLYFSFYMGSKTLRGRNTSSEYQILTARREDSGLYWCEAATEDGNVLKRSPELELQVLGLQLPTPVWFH
The target of experiment [7] is extracellular fragment of FcRn (UniProt P55899). Nature of the experiment: BLI; biotinylated FcRn immobilized on Streptavidin (SA) biosensors (Octet Red384); antibodies in solution, 345 to 5.39 nM; PBS-HCl pH 6.0 0.1% Tween-20; at least triplicate. For orientation: BLI is a label-free optical method that tracks binding on a fibre tip over time.
Sequence of extracellular fragment of FcRn (P55899 24-297): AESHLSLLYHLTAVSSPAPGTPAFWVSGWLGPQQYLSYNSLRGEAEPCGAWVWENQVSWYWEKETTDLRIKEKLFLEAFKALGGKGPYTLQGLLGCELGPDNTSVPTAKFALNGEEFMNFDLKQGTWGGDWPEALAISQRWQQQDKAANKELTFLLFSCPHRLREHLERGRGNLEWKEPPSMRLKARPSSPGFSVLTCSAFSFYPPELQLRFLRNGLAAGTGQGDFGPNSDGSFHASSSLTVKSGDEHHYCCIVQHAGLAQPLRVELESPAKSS
Experiment [8] deals with T1, extracellular domain of PD-1 receptor (R&D Systems) (Homo sapiens, UniProt Q15116).
T1 construct: Programmed cell death protein 1 (PD-1), extracellular domain; also called Programmed cell death protein 1; source: bought: R&D Systems
T1 sequence (Q15116 25-170): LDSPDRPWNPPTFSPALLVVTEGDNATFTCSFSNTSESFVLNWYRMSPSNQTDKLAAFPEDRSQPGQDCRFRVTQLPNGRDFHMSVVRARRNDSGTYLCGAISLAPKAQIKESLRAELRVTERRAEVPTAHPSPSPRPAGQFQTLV
As to the kind of experiment: SPR; PD-1 extracellular domain immobilized on a Planar Polyethylene Glycol/Carboxyl Sensor Chip (Reichert4SPR); antibodies in solution, 10; 3.33; 1.11; 0.37; 0.12 nM in PBS 0.02% Tween-20 pH 7.4; multi-step kinetics; triplicate. To be noted: both partners purified. A general note: SPR reads the build-up and loss of mass on a sensor chip optically.

Sequence of extracellular fragment of FcγRIIIa (158F) (P08637 17-208): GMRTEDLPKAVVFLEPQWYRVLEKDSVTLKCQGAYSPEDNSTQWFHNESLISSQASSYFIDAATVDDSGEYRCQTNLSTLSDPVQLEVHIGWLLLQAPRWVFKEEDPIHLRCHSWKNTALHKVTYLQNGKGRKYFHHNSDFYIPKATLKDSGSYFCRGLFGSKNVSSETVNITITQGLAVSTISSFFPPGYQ
Sequence of extracellular fragment of FcγRIIb (P31994 43-217): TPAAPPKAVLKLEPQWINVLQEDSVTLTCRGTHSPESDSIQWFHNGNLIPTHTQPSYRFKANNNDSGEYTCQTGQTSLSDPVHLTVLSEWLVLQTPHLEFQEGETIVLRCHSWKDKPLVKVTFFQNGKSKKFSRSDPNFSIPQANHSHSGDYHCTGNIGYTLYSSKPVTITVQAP

The term Kd denotes the equilibrium constant for the complex coming apart. The low end stands for tighter binding, the high end for weaker binding. With Pembrolizumab (antibody), the Kd in experiment [1] was 5.24 µM; in experiment [2], 5.17 µM.

In the case of Nivolumab (antibody), the Kd turned out to be 16.6 µM in experiment [3]; 0.93 µM in experiment [4]; 13.1 µM in experiment [5]; 8.97 µM in experiment [1]; 2 µM in experiment [2]; 0.074 µM in experiment [6]. The Kd in experiment [7] worked out at 0.0248 µM.

B1: Pembrolizumab (antibody, V domains shown)
VH: QVQLVQSGVEVKKPGASVKVSCKASGYTFTNYYMYWVRQAPGQGLEWMGGINPSNGGTNFNEKFKNRVTLTTDSSTTTAYMELKSLQFDDTAVYYCARRDYRFDMGFDYWGQGTTVTVSS
VL: EIVLTQSPATLSLSPGERATLSCRASKGVSTSGYSYLHWYQQKPGQAPRLLIYLASYLESGVPARFSGSGSGTDFTLTISSLEPEDFAVYYCQHSRDLPLTFGGGTKVEIK
notes: variable domain of the pembrolizumab heavy chain; constant region of the IgG4 heavy chain; light chain of pembrolizumab; IgG4; Whole therapeutic antibody in all assays; also called anti-PD-1 antibody; IgG4
Turning to B1, the Kd in experiment [3] stood at 19.9 µM; in experiment [4], 8.64 µM; in experiment [5], 11.1 µM; in experiment [6], 0.085 µM; in experiment [8], 4.7 pM; in experiment [7] it was 0.025 µM.

B2: Prolgolimab (antibody, V domains shown)
VH: QVQLVQSGGGLVQPGGSLRLSCAASGFTFSSYWMYWVRQVPGKGLEWVSAIDTGGGRTYYADSVKGRFAISRVNAKNTMYLQMNSLRAEDTAVYYCARDEGGGTGWGVLKDWPYGLDAWGQGTLVTVSS
VL: QPVLTQPLSVSVALGQTARITCGGNNIGSKNVHWYQQKPGQAPVLVIYRDSNRPSGIPERFSGSNSGNTATLTISRAQAGDEADYYCQVWDSSTAVFGTGTKLTVL
With B2, the Kd in experiment [3] is 12.7 µM; in experiment [4] it was 21 µM; in experiment [5], 14.6 µM; in experiment [1], 1.33 µM; in experiment [2] it was 9.66 µM; in experiment [6], 0.9 µM. This molecule also showed a Kd in experiment [7] of 0.0153 µM.
